Here are results for four molecules from article PMC4794909, “The transcription factor scleraxis is a critical regulator of cardiac fibroblast phenotype”.

Positions count from the first letter of the chain named.

In the data set the target is T1, scleraxis (Scx) (UniProt Q6P6L3 1-207).
T1 sequence: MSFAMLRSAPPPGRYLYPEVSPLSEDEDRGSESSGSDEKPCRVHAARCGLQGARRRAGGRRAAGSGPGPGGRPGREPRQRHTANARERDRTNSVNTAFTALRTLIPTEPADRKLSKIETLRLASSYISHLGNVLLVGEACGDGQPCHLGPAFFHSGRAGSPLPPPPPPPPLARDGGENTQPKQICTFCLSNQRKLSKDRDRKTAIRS
The data set can be described thus: EMSA; LightShift Chemiluminescent EMSA Kit (Pierce) per manufacturer, as in ref. 18; 500x cold competition; buffer, salt, pH and temperature not given. The following applies: chain copies: 2; label: biotin; blunt.

B1: E box 2 (E2), αSMA promoter (dsDNA)
DNA 1: GTTTATCCCCATAAGCAGCTGAACTGCCTCCTGTTT
DNA 2: AAACAGGAGGCAGTTCAGCTGCTTATGGGGATAAAC
As to B1, the binding result is listed as “binds”.

B2: E box 2 mutant (mE2) (dsDNA)
DNA 1: B1 DNA 1 with A17T, C19G
DNA 2: B1 DNA 2 with G18C, T20A
Regarding B2, the binding result is “no binding”.

B3: E box 1 (E1), αSMA promoter (dsDNA)
DNA 1: GTCTGGGCATTTGAGCAGTTGTTCTGAGGGCTCAGG
DNA 2: CCTGAGCCCTCAGAACAACTGCTCAAATGCCCAGAC
Take B3: the binding result is listed as “binds”.

B4: E box 1 mutant (mE1) (dsDNA)
DNA 1: B3 DNA 1 with A17C, T19A
DNA 2: B3 DNA 2 with A18T, T20G
Turning to B4, the binding result is “no binding”.
